Results reported in the supplement of paper PMC11865577.

How the values were obtained:
Test in all cases: pull-down binding Z-score (relative to library population); higher = stronger binding
[1] = test system: G-clamp-N3 (biotin conjugate); details: RNA library: Library-1 (pre-miRNA loops + repeats)
Method in brief: (§1)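 The RNA library, end-labelled with Cy5 or Cy3, was heat-folded in phosphate/NaCl/KCl buffer, and 1 μg was incubated at 25 °C for 60 min with streptavidin beads carrying 100 pmol of biotin-conjugated small molecule. Hot SDS released the bound RNA, which was then hybridised to a DNA barcode microarray for 20 h at 55.5 °C. For scoring binding, signal from beads alone was subtracted, replicate barcoded probes were averaged after discarding the highest and lowest, and each value was turned into a Z-score from the library mean and standard deviation.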

[2] = test system: TO-3-N3 (biotin conjugate); details: RNA library: Library-2
Method in brief: as §1

[3] = test system: TO-3-N3-2 (biotin conjugate); details: RNA library: Library-2
Method in brief: as §1

[4] = test system: TO-N3 (biotin conjugate); details: RNA library: Library-2
Method in brief: as §1

[5] = test system: TO-N3-2 (biotin conjugate); details: RNA library: Library-2
Method in brief: as §1

| Sequence | pull-down binding Z-score [1] | pull-down binding Z-score [2] | pull-down binding Z-score [3] | pull-down binding Z-score [4] | pull-down binding Z-score [5] |
| --- | --- | --- | --- | --- | --- |
| GGGGUGGCUGCGGGCCUUCUGAAGGUCUCCC [hsa-mir-662] | 0.76 | 0.427 | 0.448 | 0.946 | 1.24 |
| GGGGUUUUUGCCUCCAACUGACUCC [hsa-mir-155] | -0.504 | -0.366 | -0.283 | -0.292 | -0.135 |
| GGGUCAGGUCUGCAGCCUUGUAUCUGCUGAUCC [hsa-mir-6881] | -0.0593 | -0.183 | -0.227 | -0.234 | -0.107 |
| GGGUCAGUGGCAGAGCCAGGCAGAUGCUGACCC [hsa-mir-6832] | 2.93 | 0.349 | 0.267 | 0.45 | 0.72 |
| GGGUCCUAAGGUGUGUCCUC [hsa-mir-1976] | -0.979 | -0.224 | -0.0978 | 0.25 | 0.812 |
| GGGUCGUGGGAAAGUGUUGACCC [hsa-mir-4655] | 1.79 | 0.166 | 0.276 | 0.5 | 0.588 |
| GGGUGAGAGUGCUUUCUGAAUGCAGUGCACCC [hsa-mir-500b] | 0.8 | 0.297 | 0.131 | 0.52 | 0.985 |
| GGGUGAUACACAAGCCUGACCCUCCC [hsa-mir-6793] | -0.976 | 0.244 | 0.55 | 0.416 | 0.954 |
| GGGUGGGCGGGGGCGGCCGGUGGGAACCCCGCCCCGCCCCGCGCCCGCACUCACCC [hsa-mir-7108] | 0.489 | 6.31 | 6.86 | 5.22 | 4.08 |
| GGGUGUAUGGUAUAGGGGUAGCCU [hsa-mir-3137] | 3.31 | 2.13 | 1.54 | 2.5 | 2.42 |
| GGGUUCAAUAGAUUGCUUUAGCUGAAGCAAGCCU [hsa-mir-8054] | -0.803 | 0.125 | 0.131 | 0.00977 | -0.201 |
| GGGUUGCAUCCUAAGCUGUGCUGGAGCUUCCC [hsa-mir-623] | -0.84 | 0.567 | 0.384 | 0.877 | 0.682 |
| GGUAAGGUCUUUCAGCC [hsa-mir-7150] | 0.213 | 0.648 | 0.105 | 0.622 | 0.413 |
| GGUACUUUAUAAUUUCAAAAAGUCCC [hsa-mir-361] | -0.194 | -1.13 | -0.356 | -1.51 | -1.41 |
| GGUAGAGAUGAUUUUUCCUACU [hsa-mir-5003] | 0.245 | 1.76 | 0.65 | 1.78 | 0.226 |
| GGUAGGUUACGUCAUGCUGUUCUACC [hsa-mir-140] | 0.599 | -0.251 | -0.139 | -0.0663 | 0.193 |

| Sequence | pull-down binding Z-score [1] | pull-down binding Z-score [2] | pull-down binding Z-score [3] | pull-down binding Z-score [4] | pull-down binding Z-score [5] |
| --- | --- | --- | --- | --- | --- |
| GGUAUGGAUUCUGUUGUUUUGGCAACAUUCU [hsa-mir-8088] | 0.269 | -0.382 | 0.124 | -0.328 | -0.244 |
| GGUCAGGUGGUGCCCUCCUUCCAUGGGUAGAGCCAGAGAUGGUGGGUUCUGGCU [hsa-mir-6131] | 0.859 | 0.869 | 0.142 | 1.16 | 2.25 |
| GGUCUGAGCCCAUGUGUGGACCUAGGUCUGCUGUUAAACUGACU [hsa-mir-6831] | -0.752 | 0.286 | 0.106 | 0.492 | 0.647 |
| GGUGCAAAGCCUGCCCGCCCC [hsa-mir-5090] | -0.81 | -0.134 | -0.136 | 0.254 | 1.09 |
| GGUGCAGUCAGUCCUAGCUC [hsa-mir-3135b] | -1.49 | -0.343 | 0.0356 | 0.224 | 1.06 |
| GGUGGCAAUCAAGGUCUAGCCACC [hsa-mir-4733] | 1.02 | 0.369 | 0.265 | 0.287 | 0.228 |
| GGUGGGCCUCUGCUCUGGCCCCUCC [hsa-mir-1343] | 0.11 | 0.0146 | -0.315 | 0.0649 | 0.301 |
| GGUGGGGGCUCUGAGUGGGGAAAGUGGGGGCCUAGGGGAGGUCACAGU [hsa-mir-4259] | 0.943 | 4.45 | 3.57 | 4.21 | 2.4 |
| GGUGGGUGCC [hsa-mir-1268b] | -0.587 | -0.142 | -0.32 | -0.332 | -0.075 |
| GGUGGGUGGGAAGUAAGAUCUGACCUGGACUCCAUCCCACCCACC [hsa-mir-4640] | 0.122 | 4.87 | 4.64 | 5.35 | 4.38 |
| GGUGGUUGUGGGAGUCACU [hsa-mir-4418] | -0.575 | 1.58 | 1.89 | 2.18 | 1.93 |
| GGUGUCAUGCCCCAAGAUAACC [hsa-mir-634] | -0.532 | -0.514 | -0.28 | -0.387 | 0.0681 |
| GGUGUCGAACUCAUGGCUGCCACC [hsa-mir-6782] | 0.197 | -0.346 | -0.167 | -0.065 | 0.629 |
| GGUUCAAGUUUGGCUCCAUCUUUAUGAAA [hsa-mir-4506] | -0.636 | -0.0094 | 0.109 | 0.0775 | 0.415 |
| GGUUCCCACGCCGCGGCAACC [hsa-mir-6776] | -1.36 | 0.0159 | -0.135 | 0.217 | 0.293 |
